Kd and IC50 data for 27 sequences are collected here from the Immune Epitope Database (IEDB).

In one experiment the target is HLA-B*15:03. In words: IEDB peptide-MHC binding, purified MHC/competitive/radioactivity; filed as Kd, often an IC50 or EC50 that approximates it; ≥ and ≤ were set here for values at or beyond the usual limits of such assays.
The target in the next experiment is HLA-A*11:01. In words: IEDB peptide-MHC binding, purified MHC/competitive/fluorescence; ≥ and ≤ were set here for values at or beyond the usual limits of such assays.
A further experiment deals with HLA-A*24:02. The experiment is described as above. Particulars: source organism: Sudan ebolavirus.
The next experiment has as its target HLA-B*07:02. The experiment is described as follows: IEDB peptide-MHC binding, purified MHC/competitive/radioactivity; filed as Kd, often an IC50 or EC50 that approximates it; ≥ and ≤ were set here for values at or beyond the usual limits of such assays.
A further experiment addresses HLA-B*54:01. The description is as above.
The target in the next experiment is HLA-B*53:01. The experiment is described as above.
The target of the next experiment is HLA-B*35:01. The description is as above.
For another experiment, the target named is HLA-B*51:01. Described as above.
Experiment [1] has as its target HLA-A*68:02. The experiment is described as follows: IEDB peptide-MHC binding, purified MHC/competitive/fluorescence; filed as Kd, often an IC50 or EC50 that approximates it; ≥ and ≤ were set here for values at or beyond the usual limits of such assays.
In another experiment the target is HLA-A*02:06. In words: IEDB peptide-MHC binding, purified MHC/competitive/radioactivity; filed as Kd, often an IC50 or EC50 that approximates it; ≥ and ≤ were set here for values at or beyond the usual limits of such assays.
Experiment [2] concerns the target HLA-A*68:02. The description is as above.
For experiment [3], the target named is HLA-A*02:01. Described as above.
The target in another experiment is HLA-A*02:02. The description is as above.
In a further experiment the target is HLA-A*02:03. The description is as above.
For a further experiment, the target named is HLA-A*03:01. The experiment is described as follows: IEDB peptide-MHC binding, purified MHC/competitive/fluorescence; filed as Kd, often an IC50 or EC50 that approximates it; ≥ and ≤ were set here for values at or beyond the usual limits of such assays.
Experiment [4] has as its target HLA-B*15:01. The experiment is described as above. Particulars: source organism: Escherichia coli B171.
Experiment [5] has as its target HLA-B*15:01. The experiment is described as follows: IEDB peptide-MHC binding, purified MHC/competitive/radioactivity; filed as Kd, often an IC50 or EC50 that approximates it; ≥ and ≤ were set here for values at or beyond the usual limits of such assays. The settings on record: source organism: Vaccinia virus WR.
The next experiment deals with HLA-A*69:01. The experiment is described as follows: IEDB peptide-MHC binding, purified MHC/direct/fluorescence; filed as Kd, often an IC50 or EC50 that approximates it; ≥ and ≤ were set here for values at or beyond the usual limits of such assays. Particulars: source organism: Marburg virus - Musoke, Kenya, 1980.
In a further experiment the target is HLA-A*02:12. The experiment is described as above. Particulars: source organism: Ravn virus - Ravn, Kenya, 1987.
The target of experiment [6] is HLA-A*02:01. The description is as above. The settings on record: source organism: Marburg virus - Musoke, Kenya, 1980.
In the next experiment the target is HLA-A*32:01. The experiment is described as follows: IEDB peptide-MHC binding, purified MHC/competitive/radioactivity; filed as Kd, often an IC50 or EC50 that approximates it; ≥ and ≤ were set here for values at or beyond the usual limits of such assays. The settings on record: source organism: Vaccinia virus WR.
In another experiment the target is HLA-A*30:01. The experiment is described as above. Particulars: source organism: Vaccinia virus WR.
The target of another experiment is HLA-B*08:01. The experiment is described as above. The settings on record: source organism: Vaccinia virus WR.
The mark [7] stands for this setting: source organism: Vaccinia virus Copenhagen.
Where [8] appears, read: source organism: Vaccinia virus WR.
The mark [9] stands for this setting: source organism: Triticum aestivum.
Setting [10] is: source organism: Lassa virus Josiah.
The mark [11] stands for this setting: source organism: Lymphocytic choriomeningitis virus (strain WE).
Setting [12] is: source organism: Human immunodeficiency virus type 1 BH10.

A value given as a limit tells only on which side of the number the result lay.

On to RSSRGVQFL, for which, in the experiment with HLA-B*15:03 (setting [7]), the Kd was 0.123 µM.
In the case of TFLQSPPIR, the figures for the concentration for half-maximal inhibition (IC50) with HLA-A*11:01 (source organism: Sudan ebolavirus) and in the experiment with HLA-A*24:02 were at least 119 µM and 38.8 µM, respectively.
With KKMTCGQPL, the Kd with HLA-B*15:03 (setting [8]) is 0.00151 µM.
On to FGIKCIKKG, for which, in the experiment with HLA-A*11:01 (source organism: Vaccinia virus), the IC50 was at least 290 µM.
In the case of QPFLQPQL, the Kd in the experiment with HLA-B*07:02 (setting [9]) is 0.349 µM; with HLA-B*54:01 (setting [9]), 6.35 µM; in the experiment with HLA-B*53:01 (setting [9]), at least 87.7 µM; with HLA-B*35:01 (setting [9]) it was at least 87.8 µM; in the experiment with HLA-B*51:01 (setting [9]), 1.11 µM.
On to FMTNFSMVY, for which the Kd with HLA-B*15:03 (setting [8]) is 0.00226 µM.
With EELRSLYNTI, the Kd with HLA-A*68:02 [1] (source organism: Human immunodeficiency virus 1) is at least 20 µM.
For LDAVIRANN, in the experiment with HLA-A*11:01 (setting [8]), the half-inhibitory concentration (IC50) was at least 169 µM.
As to IMTSYQYLI, the Kd with HLA-A*02:06 (setting [10]) is 0.597 µM; with HLA-A*68:02 [2] (setting [10]) it was 0.698 µM; with HLA-A*02:01 [3] (setting [10]) it was 0.0333 µM; with HLA-A*02:02 (setting [10]) it was 0.21 µM; in the experiment with HLA-A*02:03 (setting [10]), 0.0781 µM.
Sequence DVALEDNLI came in with a Kd in the experiment with HLA-A*68:02 [1] (source organism: Vibrio cholerae V52) of 0.0919 µM.
Regarding TLYDRYLIH, the Kd with HLA-A*03:01 (source organism: Coxiella burnetii RSA 331) amounted to 0.0069 µM.
For TESDMDYHK, the IC50 in the experiment with HLA-A*11:01 (source organism: Zaire ebolavirus) is at least 174 µM.
For the sequence EPISDYSAEV, the Kd in the experiment with HLA-B*07:02 (setting [8]) was 1.39 µM; with HLA-B*54:01 (setting [8]) it was 0.0466 µM; with HLA-B*53:01 (setting [8]), 2.39 µM; in the experiment with HLA-B*35:01 (setting [8]) it was 1.08 µM; in the experiment with HLA-B*51:01 (setting [8]) it was 1.11 µM.
With FQQPQFQYL, in the experiment with HLA-B*15:03 (setting [7]), the Kd turned out to be 0.0226 µM.
On to VMAGVFARY, for which the Kd came to 0.0617 µM with HLA-B*15:01 [4] and 0.0214 µM with HLA-A*03:01 (source organism: Escherichia coli B171).
As for MPEWVNFKF, the Kd with HLA-B*07:02 (setting [11]) was 2.21 µM; with HLA-B*54:01 (setting [11]), 1 µM; in the experiment with HLA-B*53:01 (setting [11]) it was 0.02 µM; in the experiment with HLA-B*35:01 (setting [11]) it was 0.00871 µM; with HLA-B*51:01 (setting [11]) it was at least 20.4 µM.
For RGPGRAFVTI, the Kd is 5.79 µM in the experiment with HLA-A*02:06 (setting [12]); at least 69.8 µM with HLA-A*68:02 [2] (setting [12]); 4.6 µM with HLA-A*02:01 [3] (setting [12]); at least 70 µM with HLA-A*02:02 (setting [12]); 12.2 µM with HLA-A*02:03 (setting [12]).
As to VEVEPGSSF, the Kd in the experiment with HLA-B*15:03 (setting [8]) amounted to 0.00166 µM.
MYIFLPVML came in with a dissociation constant Kd with HLA-A*68:02 [1] (source organism: Entamoeba dispar SAW760) of 0.0941 µM.
EQYKTESFF: the Kd in the experiment with HLA-B*15:03 (setting [8]) stood at 0.0018 µM; with HLA-B*15:01 [5], 0.00657 µM.
Turning to EPEKDIRELL, the dissociation constant (Kd) in the experiment with HLA-B*07:02 (setting [8]) was 15.5 µM; with HLA-B*54:01 (setting [8]), at least 24.2 µM; in the experiment with HLA-B*53:01 (setting [8]), 0.226 µM; with HLA-B*35:01 (setting [8]), at least 35.5 µM; with HLA-B*51:01 (setting [8]) it was at least 51 µM.
ISSLGILVF: the Kd with HLA-B*15:03 (setting [8]) came to 0.0817 µM.
In the case of NPNCLEWLRA, the Kd with HLA-B*07:02 (setting [8]) was 17.4 µM; with HLA-B*54:01 (setting [8]), 0.0202 µM; in the experiment with HLA-B*53:01 (setting [8]), 2.05 µM; with HLA-B*35:01 (setting [8]) it was 1.16 µM; in the experiment with HLA-B*51:01 (setting [8]) it was at least 69.6 µM.
Take TKVMFVIRF: the Kd with HLA-B*15:03 (setting [8]) was 0.0308 µM.
Take YLPEDSDIL: the Kd with HLA-A*69:01 is at least 20 µM; with HLA-A*02:12, 0.006 µM; with HLA-A*02:01 [6] it was 0.525 µM.
The sequence RVDEIILFK showed a Kd with HLA-A*03:01 (source organism: Bacillus cereus G9241) of 0.156 µM.
For FFLQRLYFL, the Kd was 0.805 µM with HLA-B*15:03 (setting [8]); at least 38.1 µM with HLA-A*32:01; 0.768 µM in the experiment with HLA-A*30:01; 0.00679 µM with HLA-B*08:01; 1.21 µM in the experiment with HLA-B*15:01 [5].

What is called Kd is a measure of binding affinity in units of concentration. The term IC50 denotes the concentration that inhibits the measured activity by half.
